Assays:
[1] = target: synaptotagmin-1, intact 65 kDa protein (rat) (UniProt P21707)
[2] = system: GST-CRMP2 recombinant protein (Kinasource, cat# SU-040) [GST: P08515]
[3] = target: collapsin response mediator protein-2, intact (rat) (UniProt P47942)
[4] = system: GST-synaptotagmin recombinant protein [GST: P08515]
Sequence of GST-synaptotagmin recombinant protein [GST: P08515] (P08515 whole entry, looked up): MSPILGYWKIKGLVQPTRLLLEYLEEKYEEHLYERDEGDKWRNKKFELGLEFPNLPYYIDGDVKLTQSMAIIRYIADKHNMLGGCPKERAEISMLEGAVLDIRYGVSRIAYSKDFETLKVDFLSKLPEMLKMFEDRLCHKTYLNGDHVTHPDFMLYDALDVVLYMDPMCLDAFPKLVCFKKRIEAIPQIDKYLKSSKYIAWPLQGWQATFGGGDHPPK

Sequence of synaptotagmin-1, intact 65 kDa protein (rat) (P21707 whole entry): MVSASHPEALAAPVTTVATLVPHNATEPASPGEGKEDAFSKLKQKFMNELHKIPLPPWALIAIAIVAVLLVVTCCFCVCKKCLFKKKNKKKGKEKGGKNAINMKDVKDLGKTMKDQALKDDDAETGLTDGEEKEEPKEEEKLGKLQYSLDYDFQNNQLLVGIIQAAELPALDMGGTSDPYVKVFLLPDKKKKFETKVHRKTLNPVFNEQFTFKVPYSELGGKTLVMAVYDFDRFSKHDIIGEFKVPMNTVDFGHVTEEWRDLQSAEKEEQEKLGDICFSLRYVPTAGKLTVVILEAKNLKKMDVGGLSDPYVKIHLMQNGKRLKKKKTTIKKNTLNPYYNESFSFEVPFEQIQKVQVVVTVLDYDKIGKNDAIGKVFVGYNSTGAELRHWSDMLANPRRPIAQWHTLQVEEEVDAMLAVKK
Sequence of GST-CRMP2 recombinant protein (Kinasource, cat# SU-040) [GST: P08515] (P08515 whole entry, looked up): as the sequence (P08515 whole entry, looked up) above

Row | Substance | in vitro protease digestion, Western blot [1] | in vitro digestion of the purified protein, Coomassie and Western blot [2] | in vitro protease digestion of naive brain lysate, Western blot [3] | in vitro digestion of the recombinant protein, Western blot [4]
1 | MMP-9 | Overall, Syt1 was relatively resistant to these proteases and under no conditions was the TBI-associated characteristic BDP-33k detected (results not shown). | – | – | –
2 | cathepsin B | Overall, Syt1 was relatively resistant to these proteases and under no conditions was the TBI-associated characteristic BDP-33k detected (results not shown). | – | – | –
3 | MMP-2 | Overall, Syt1 was relatively resistant to these proteases and under no conditions was the TBI-associated characteristic BDP-33k detected (results not shown). | – | – | –
4 | cathepsin D | Overall, Syt1 was relatively resistant to these proteases and under no conditions was the TBI-associated characteristic BDP-33k detected (results not shown). | – | – | –
5 | calpain (purified; isoform not named where the result is told) | – | purified GST-CRMP-2 protein digested by calpain. The obtained cleavage fragments were used to determine the calpain cleavage site. | in vitro calpain treatment of naive brain lysate resulted in the same fragmentation pattern observed after TBI in vivo, with the 62 kDa and 66 kDa intact CRMP-2 bands disappearing | The recombinant synaptotagmin was cleaved in vitro to a 21 kDa BDP as detected with anti-GST.

From US20120196307
